Drawing on CN110294802A, this text covers EC50 for one molecule.

For the experiment, the target named is HAdV7灭活病毒 (human/CHN/GZ6965/2001).

B1: 10G12抗体 (antibody, V domains shown)
VH: QVQLKQPGAELVRPGASVKLSCKASGYSFTNYWMHWMKQRPGQGLEWIGMIDPSDSETRLNQKFKDKATLTVDKSSSIAYMQLSSPTSEDSAVYYCARDRYDGGAWFDYWSQGTLVT
VL: DIVMTQTPLSLPVSLGDQASISCRSSQSLVHSNGNTYLHWYLQKPGQSPKLLIYKVSNRFSGVPDRFSVSGSGTDFTLKISRVEAEDLGVYFCSQSTHVPPTFGGGTKLEIK
For the molecule B1, the EC50 was 140 pM.

What is called EC50 is the concentration giving half of the maximal effect. Read a high EC50 as a need for much substance.
